Test results: the supplement of paper PMC9112550, “Optimization of the antimicrobial peptide Bac7 by deep mutational scanning” (BMC Biology, 2022)

Tested on: Escherichia coli TOP10
Assay: shrunken log2 fold change of peptide-encoding DNA abundance (4.5 h post-induction vs induction); higher = less antimicrobial activity (less host growth inhibition)
Details: time post-induction: 4.5 h; library: site-saturation at positions 5, 18, 19, 20
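Further: peptides expressed intracellularly from a pBAD plasmid library in pooled LB shake-flask culture, induced with 0.3% L-arabinose, DNA abundance read by NGS, three biological replicates, DESeq2 with apeglm shrinkage.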

Sequence | shrunken log2 fold change
RRIRKRPPRLPRPRPRPSKRPRP | 0.0981
RRIRKRPPRLPRPRPRPSKTPRP | 0.0486
RRIRKRPPRLPRPRPRPSMGPRP | -0.267
RRIRKRPPRLPRPRPRPSPPPRP | 0.305
RRIRKRPPRLPRPRPRPSPSPRP | 0.452
RRIRKRPPRLPRPRPRPSPTPRP | -0.00658
RRIRKRPPRLPRPRPRPSQMPRP | 0.247
RRIRKRPPRLPRPRPRPSRCPRP | 0.392
RRIRKRPPRLPRPRPRPSSDPRP | 0.246
RRIRKRPPRLPRPRPRPSTPPRP | 0.0478
RRIRKRPPRLPRPRPRPSTRPRP | -0.114
RRIRKRPPRLPRPRPRPSTSPRP | -0.0896
RRIRKRPPRLPRPRPRPSYQPRP | -0.52
RRIRKRPPRLPRPRPRPTCLPRP | 0.0518
RRIRKRPPRLPRPRPRPTCVPRP | 0.241
RRIRKRPPRLPRPRPRPTDGPRP | 0.396
RRIRKRPPRLPRPRPRPTDYPRP | 0.124
RRIRKRPPRLPRPRPRPTEDPRP | 1.03
RRIRKRPPRLPRPRPRPTENPRP | 0.143
RRIRKRPPRLPRPRPRPTESPRP | 0.00281
RRIRKRPPRLPRPRPRPTHPPRP | 0.932
RRIRKRPPRLPRPRPRPTKAPRP | 0.647
RRIRKRPPRLPRPRPRPTKQPRP | -0.0553
RRIRKRPPRLPRPRPRPTMLPRP | 0.131
RRIRKRPPRLPRPRPRPTNCPRP | 0.0303

Sequence | shrunken log2 fold change
RRIRKRPPRLPRPRPRPTNMPRP | -0.155
RRIRKRPPRLPRPRPRPTNWPRP | 0.689
RRIRKRPPRLPRPRPRPTPKPRP | 0.334
RRIRKRPPRLPRPRPRPTQAPRP | -0.00908
RRIRKRPPRLPRPRPRPTQVPRP | 0.312
RRIRKRPPRLPRPRPRPTSVPRP | 0.0245
RRIRKRPPRLPRPRPRPTWFPRP | 0.203
RRIRKRPPRLPRPRPRPTYDPRP | -0.0829
RRIRKRPPRLPRPRPRPTYSPRP | -0.191
RRIRKRPPRLPRPRPRPVAFPRP | 0.238
RRIRKRPPRLPRPRPRPVATPRP | 0.635
RRIRKRPPRLPRPRPRPVAVPRP | 0.138
RRIRKRPPRLPRPRPRPVCCPRP | 0.517
RRIRKRPPRLPRPRPRPVDWPRP | 0.852
RRIRKRPPRLPRPRPRPVGHPRP | 0.224
RRIRKRPPRLPRPRPRPVGRPRP | 0.21
RRIRKRPPRLPRPRPRPVHYPRP | -0.0126
RRIRKRPPRLPRPRPRPVITPRP | -0.249
RRIRKRPPRLPRPRPRPVIWPRP | 0.153
RRIRKRPPRLPRPRPRPVKDPRP | 0.0491
RRIRKRPPRLPRPRPRPVMAPRP | 0.588
RRIRKRPPRLPRPRPRPVNWPRP | 0.192
RRIRKRPPRLPRPRPRPVPEPRP | 0.151
RRIRKRPPRLPRPRPRPVPVPRP | 0.253
RRIRKRPPRLPRPRPRPVQSPRP | 0.00205

Sequence | shrunken log2 fold change
RRIRKRPPRLPRPRPRPVRAPRP | 1.27
RRIRKRPPRLPRPRPRPVRFPRP | 0.397
RRIRKRPPRLPRPRPRPVRIPRP | 0.494
RRIRKRPPRLPRPRPRPVRYPRP | 0.152
RRIRKRPPRLPRPRPRPVYIPRP | -0.564
RRIRKRPPRLPRPRPRPWCEPRP | 0.157
RRIRKRPPRLPRPRPRPWCKPRP | -0.188
RRIRKRPPRLPRPRPRPWCNPRP | -0.204
RRIRKRPPRLPRPRPRPWDPPRP | -0.235
RRIRKRPPRLPRPRPRPWDTPRP | -0.00122
RRIRKRPPRLPRPRPRPWFDPRP | -0.0566
RRIRKRPPRLPRPRPRPWHIPRP | -0.0551
RRIRKRPPRLPRPRPRPWINPRP | -0.0449
RRIRKRPPRLPRPRPRPWKLPRP | -0.14
RRIRKRPPRLPRPRPRPWLFPRP | 0.202
RRIRKRPPRLPRPRPRPWLKPRP | 0.0705
RRIRKRPPRLPRPRPRPWMSPRP | -0.0718
RRIRKRPPRLPRPRPRPWMTPRP | -0.13
RRIRKRPPRLPRPRPRPWNTPRP | -0.332
RRIRKRPPRLPRPRPRPWPQPRP | 0.0865
RRIRKRPPRLPRPRPRPWQDPRP | -0.0361
RRIRKRPPRLPRPRPRPWQHPRP | -0.0281
RRIRKRPPRLPRPRPRPWRDPRP | 0.188
RRIRKRPPRLPRPRPRPWSCPRP | -0.22
RRIRKRPPRLPRPRPRPWSSPRP | -0.136
